The source of these data is patent US20200347151A1 (CRAGE MEDICAL, published 2020).

Experiment [1] deals with T1, human FAPα_His (human, UniProt Q12884 26-760).
T1 construct: Fusion protein expressed in 293F cells and purified on a nickel column; also called huFAP; recombinant huFAPα
In words: Biacore, scFv; 8E3, human FAPα.

Another experiment has as its target T2, mouse FAPα_His (mouse, UniProt P97321 26-761).
T2 construct: Fusion protein expressed in 293F cells and purified on a nickel column; also called mFAP
Put plainly: Biacore, scFv; 8E3, murine FAP.

The target of experiment [2] is T1, human FAPα_His. In words: Biacore, scFv; reference is parent antibody 10A4.

T1 sequence (Q12884 other isoform, or with tags, fused parts or gaps limits assumed): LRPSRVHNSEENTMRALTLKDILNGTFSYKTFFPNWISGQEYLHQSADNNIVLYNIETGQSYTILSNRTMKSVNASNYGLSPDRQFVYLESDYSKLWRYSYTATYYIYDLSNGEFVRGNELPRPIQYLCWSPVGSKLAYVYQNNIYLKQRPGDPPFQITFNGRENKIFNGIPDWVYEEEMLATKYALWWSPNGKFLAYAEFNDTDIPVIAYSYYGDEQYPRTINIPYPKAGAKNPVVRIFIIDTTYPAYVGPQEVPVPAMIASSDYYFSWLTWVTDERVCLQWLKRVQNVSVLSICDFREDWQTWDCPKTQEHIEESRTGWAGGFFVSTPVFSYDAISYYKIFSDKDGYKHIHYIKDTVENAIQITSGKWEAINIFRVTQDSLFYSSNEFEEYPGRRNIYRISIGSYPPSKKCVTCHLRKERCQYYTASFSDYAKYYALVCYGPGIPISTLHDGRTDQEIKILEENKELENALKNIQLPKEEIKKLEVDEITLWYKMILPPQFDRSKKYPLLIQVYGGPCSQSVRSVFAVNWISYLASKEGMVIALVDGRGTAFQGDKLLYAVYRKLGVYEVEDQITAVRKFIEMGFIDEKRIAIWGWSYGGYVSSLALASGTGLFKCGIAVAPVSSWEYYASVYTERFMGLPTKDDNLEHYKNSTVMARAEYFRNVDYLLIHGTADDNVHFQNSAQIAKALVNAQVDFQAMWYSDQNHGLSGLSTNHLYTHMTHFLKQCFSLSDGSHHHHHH
T2 sequence (P97321 other isoform, or with tags, fused parts or gaps limits assumed): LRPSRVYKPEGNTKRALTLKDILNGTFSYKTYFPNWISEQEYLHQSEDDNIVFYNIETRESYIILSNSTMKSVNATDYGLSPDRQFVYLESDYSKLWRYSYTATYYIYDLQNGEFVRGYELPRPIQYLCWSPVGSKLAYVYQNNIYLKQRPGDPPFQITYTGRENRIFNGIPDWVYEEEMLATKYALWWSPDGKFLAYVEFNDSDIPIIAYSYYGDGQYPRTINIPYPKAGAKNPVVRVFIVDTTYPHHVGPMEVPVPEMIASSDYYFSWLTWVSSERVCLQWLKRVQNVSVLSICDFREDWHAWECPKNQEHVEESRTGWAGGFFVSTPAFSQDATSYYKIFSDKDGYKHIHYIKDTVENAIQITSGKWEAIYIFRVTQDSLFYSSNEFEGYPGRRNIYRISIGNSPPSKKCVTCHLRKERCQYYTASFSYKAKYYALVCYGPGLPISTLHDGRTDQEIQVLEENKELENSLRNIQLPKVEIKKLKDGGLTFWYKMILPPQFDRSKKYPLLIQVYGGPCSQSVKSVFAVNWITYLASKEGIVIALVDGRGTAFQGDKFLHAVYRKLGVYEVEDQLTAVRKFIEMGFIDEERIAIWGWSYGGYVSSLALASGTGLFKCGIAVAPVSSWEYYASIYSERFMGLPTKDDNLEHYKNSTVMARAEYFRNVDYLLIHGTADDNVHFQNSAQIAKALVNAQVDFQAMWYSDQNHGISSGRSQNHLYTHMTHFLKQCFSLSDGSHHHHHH

B1: antibody 8E3 (scFv), affinity-matured from 10A4 (scFv)
scFv: QVQLVQSGAEVKKPGSSVKVSCKASGGTFSSYAISWVRQAPGQGLEWMGGIIPIFGTANYAQKFQGRVTITADKSTSTAYMELSSLRSEDTAVYYCARDAADRDYWGQGTTVTVSSGGGGSGGGGSGGGGSDIVMTQSPLSLPVTPGEPASISCRSSQSLLHPNGFNHLYWYLQKPGQSPQLLIYVGGNRASGVPDRFSGSGSGTDFTLKISRVEAEDVGVYYCQQRNNKNRTFGQGTKVEIKR
notes: also called hu8E3
In the case of B1, the Kd in the experiment with human FAPα_His [1] was 81.6 nM; with mouse FAPα_His, 267 nM. In the experiment with human FAPα_His [2], the “fold affinity against 10A4” value was found to be 2.4 times.
